In paper PMC6032326, “Connexin43 Carboxyl-Terminal Domain Directly Interacts with β-Catenin” (International Journal of Molecular Sciences, 2018):
Where “and” joins values, the source holds several entries; their conditions need not be identical. Equal values may be shown once.

Experiments:
[1] = target: T1, Connexin43 carboxyl-terminal domain (V236–I382) (rat, UniProt P08050 236-382, 15N-labelled); experiment: NMR titration; 15N-HSQC at 7 °C; 15N-labelled Cx43CT (WT, Y313D or Y265,313D) at constant 35 μM, unlabelled β-catenin, β-catenin CT or β-catenin ΔCT added up to 285 μM; 1x PBS pH 7.8, 2 mM dithiothreitol; KD from the fit of the decrease in signal intensity; conditions: both partners purified
T1 construct: Connexin43 (Cx43), rat, carboxyl-terminal domain, residues V236-I382; pGEX-6P-2 carries a PreScission site, so GST was probably cleaved (surmise); also called Cx43CT; Cx43CT WT; source: bacterial expression vector pGEX-6P-2, expressed and purified in 1x PBS as previously described

[2] = target: T2, Cx43CT Y313D (rat, UniProt P08050 236-382, Y313D, 15N-labelled); experiment: as above; conditions: both partners purified
T2 construct: Connexin43 (Cx43), rat, carboxyl-terminal domain, residues V236-I382, with the phosphomimetic Y313D; The mutation was put into 'the Cx43CT plasmid'; also called single phosphomimetic; source: bacterial expression vector pGEX-6P-2, expressed and purified in 1x PBS as previously described

- Kd [1]: 210 µM and 202 µM
- Kd [2]: 341 µM
B1: β-catenin carboxyl-terminal (CT) domain (S681–L781) (domain or fragment, human, UniProt P35222 681-781, looked up)
chain: SLFRTEPMAWNETADLGLDIGAQGEPLGYRQDDPSYRSFHSGGYGQDALGMDPMMEHEMGGHHPGADYPVDGLPDLGHAQDLMDGLPPGDSNQLAWFDTDL
notes: β-catenin, human, C-terminal domain, residues S681-L781; also called β-catenin CT; β-catenin CT domain
